Reference: a protein production outcome set (Wang et al. 2014)

Experiment: label from the status in PepcDB records

Sequence | protein production
MRRLVLAALLAATSLTTAKAGDLLIHGGPIHTGVEAAPTAEAVLIRDDKILFVGPLAAAKAKAAKDVRAIDLKGAAAYPGFVDAHAHLTGIGLRELTLNLDQVKSVAELVAAVKAYAAAHPEGPISGRGWIETHWPEKRFPTKADLDAAAPGRIVVLGRSDGHASVASSAALAKAGITAATVPPPGGDILKGPDGQPDGMLIDHAQALVRNVIPPPNQALKREALRKAGQLYAARGWTGMANMSVMAEDLSLLRDEAAKGNFHIRIDNYMDPSGAEEVLTKGPQTDATGLIRVQGIKLYMDGALGSRGAALLEPYSDADTLGLQLTQPEQGLALMKRAKAAGAQVAMHAIGDRGNRLVLDWFEQSLGAEAKAARWRNEHSQIVADTDVPRFAKLGVIASMQPSHAIGDLFFAPARLGKARLHEGYRWADFLKADVVVAAGSDAPVEVGDPRIEFYAAVYRHSLDGFANADWHLDQAVSRAEALKMLTLAPAYAVFREKELGTLEAGKKADVTAFDRDLMTVEPKAILTAQPVLTVVDGKVVYSR | failed
MRRNTALTRIMASGVAAIMLCAGGTFTVNAAEEEPVKADVSVKAIQGLSDDFIGGMDVSSMLSLEESGVTFKNANGEVEDLFTLLKESGVNYVRLRVWNDPFTADGQGYGGGNVNADRALTMAKRATAAGLKVLVDFHYSDFWADPSKQQVPKAWKSFEGDADKTADTVYDYTKQTLTTFKQAGVDVGMVQVGNETTAKIAGISGWDGMSKVFSAGSKAIREVLPEAKVVIHFTNPEKAGTYATYAKQLSNHNVDYDVFASSYYPFWHGTTENLTSVLKNVASTYKKDVMVAETSWAYTLDDGDDDSNTVPSKVTADNLKKYDISPQGQADEIRAVAEAVNNIGDNDGDGENDGLGVFYWEPAWVPVGTGGKDNAELVDTWNKYGGGWATEAAGEYDPNDAGLYWGGSGVDNQALFDFDGKALASLPTFKYIHTGAVTDHVFTKIDPVEITATDSDSIDAIKAQLPSEVAAHYQDGVDETETVTWQSAALDWIRGAGTYTITGTTNAGHDVTVTVTVTATPAKDYVTDGSFENAENDKNWTIAGTGASITEDSGNAADGKRALKFWASDAYSFSATQTITGLEPGEYVLTAMSQGAAADNAAITDGVALSATTGGKTTSDALELNGWVKFDTATVPVTVGADGTATITITGNLPADAWGNVDKVSLVKKTETPVKPSTENLDKAVAEAGKINRDEYTNESLAKLDQALAAADVLLAGSTYTEQDVNDVIKLVADAIAGLAQKEVSSLTVTPSKTTYQVGDAIDADHDLKVVGNYSAGMGNVTLSADQFTLDYDFSAPADAAKVTVTLKSNPNVTETYTVAVTARAEGGSGNGSDGAGNGGATINPDTGEGDKTNGANGDKITGVLSNTGSAVTAVGLAVVVLGVAGGVSLALRRKRS | failed
MRRREGHGTDSEMGQGPVRESQSSDPPALQFRISEYKPLNMAGVEQPPSPELRQEGVTEYEDGGAPAGDGEAGPQQAEDHPQNPPEDPNQDPPEDDSTCQCQACGPHQAAGPDLGSSNDGCPQLFQERSVIVENSSGSTSASELLKPMKKRKRREYQSPSEEESEPEAMEKQEEGKDPEGQPTASTPESEEWSSSQPATGEKKECWSWESYLEEQKAITAPVSLFQDSQAVTHNKNGFKLGMKLEGIDPQHPSMYFILTVAEVCGYRLRLHFDGYSECHDFWVNANSPDIHPAGWFEKTGHKLQPPKGYKEEEFSWSQYLRSTRAQAAPKHLFVSQSHSPPPLGFQVGMKLEAVDRMNPSLVCVASVTDVVDSRFLVHFDNWDDTYDYWCDPSSPYIHPVGWCQKQGKPLTPPQDYPDPDNFCWEKYLEETGASAVPTWAFKVRPPHSFLVNMKLEAVDRRNPALIRVASVEDVEDHRIKIHFDGWSHGYDFWIDADHPDIHPAGWCSKTGHPLQPPLGPREPSSASPGGCPPLSYRSLPHTRTSKYSFHHRKCPTPGCDGSGHVTGKFTAHHCLSGCPLAERNQSRLKAELSDSEASARKKNLSGFSPRKKPRHHGRIGRPPKYRKIPQEDFQTLTPDVVHQSLFMSALSAHPDRSLSVCWEQHCKLLPGVAGISASTVAKWTIDEVFGFVQTLTGCEDQARLFKDEARIVRVTHVSGKTLVWTVAQLGDLVCSDHLQEGKGILETGVHSLLCSLPTHLLAKLSFASDSQY | failed
MRRSRRAALAACLILAIAATPGAVLAQTVDELYASAVKARQARHFDEAVDLLRRALALKPDNADALVQLGFAELGRNDLAAARDAFSKALSLAPTYQDASFGLAEIEFRSGNLDAALPLAESVARAQPGNTDAAALVENIRKAMQAAGGEARKASVAAPRAKPRPDPVAGLMEQGRRLRTAGKLPEAEKVYRRALGLAPKNTDILVALGLIVGSSQRFDEAGHFFDRALAIKPGLLDARIGKIRMAIWQGDVPSARALVDDVLASSPDNVEALDLDAKVALLEADYTRAGQSFQRVLAIDPRNAEALVGIGDVRRAQGDDDAARQAYREALAIEPGSSDIEQRLAVPPPRKWRLDLGTEVSDLTNGLSDWTDSSAGLAYRLSPRTTISGRTRVATRFGRTDVQIEGRIDEAFSPAFSAYAFAAATPDADFLARYSIGAGASLQVMAAAKAFGPLSLNIDTRYDNFTNTNVTSVSPWVQGYIFDGRLGLSARWVHAADDIGTRADGYVLRVDLAMAQRFNLFGGYADAPEISDGTLVPTRTVFGGISWDVNDPLTLRASIAHEQRPTFDRSIFGLGLTARF | failed
MRRTRRPRFVLMNKMDDLNLHYRFLNWRRRIREIREVRAFRYQERFKHILVDGDTLSYHGNSGEVGCYVASRPLTKDSNYFEVSIVDSGVRGTIAVGLVPQYYSLDHQPGWLPDSVAYHADDGKLYNGRAKGRQFGSKCNSGDRIGCGIEPVSFDVQTAQIFFTKNGKRVGSTIMPMSPDGLFPAVGMHSLGEEVRLHLNAELGREDDSVMMVDSYEDEWGRLHDVRVCGTLLEYLGKGKSIVDVGLAQARHPLSTRSHYFEVEIVDPGEKCYIALGLARKDYPKNRHPGWSRGSVAYHADDGKIFHGSGVGDPFGPRCYKGDIMGCGIMFPRDYILDSEGDSDDSCDTVILSPTARAVRNVRNVMYLHQEGEEEEEEEEEEEDGEEIEPEHEGRKVVVFFTRNGKIIGKKDAVVPSGGFFPTIGMLSCGEKVKVDLHPLSG | not failed
MRRYRTCDNPPPSNGGRACGGPDSQIQRCNTDMCPVDGSWGSWHSWSQCSASCGGGEKTRKRLCDHPVPVKGGRPCPGDTTQVTRCNVQACPGGPQRARGSVIGNINDVEFGIAFLNATITDSPNSDTRIIRAKITNVPRSLGSAMRKIVSILNPIYWTTAKEIGEAVNGFTLTNAVFKRETQVEFATGEILQMSHIARGLDSDGSLLLDIVVSGYVLQLQSPAEVTVKDYTEDYIQTGPGQLYAYSTRLFTIDGISIPYTWNHTVFYDQAQGRMPFLVETLHASSVESDYNQIEETLGFKIHASISKGDRSNQCPSGFTLDSVGPFCADEDECAAGNPCSHSCHNAMGTYYCSCPKGLTIAADGRTCQDIDECALGRHTCHAGQDCDNTIGSYRCVVRCGSGFRRTSDGLSCQDINECQESSPCHQRCFNAIGSFHCGCEPGYQLKGRKCMDVNECRQNVCRPDQHCKNTRGGYKCIDLCPNGMTKAENGTCIDIDECKDGTHQCRYNQICENTRGSYRCVCPRGYRSQGVGRPCMDIDECENTDACQHECKNTFGSYQCICPPGYQLTHNGKTCQDIDECLEQNVHCGPNRMCFNMRGSYQCIDTPCPPNYQRDPVSGFCLKNCPPNDLECALSPYALEYKLVSLPFGIATNQDLIRLVAYTQDGVMHPRTTFLMVDEEQTVPFALRDENLKGVVYTTRPLREAETYRMRVRASSYSANGTIEYQTTFIVYIAVSAYPY | failed
MRSATDLLDELNAVDESARIEAKRASDMGKSVMETVIAFANEPGLDGGYLLLGVDWAINDKGDTVYRPVGLPDPDKVQRDLASQCASMLNVALRPEMQLEQVGGKTLLVVYVPEADVTHKPIYKKATGLPGGAYRRIGSSDQRCVDEDLWVLRGLEHHHHHH | not failed
MRSGRPLYWIFLLLAFSLLAVLVYVCVAVIPDLRNHPNARRSLKRVRSTLDPQREQRDASRRLDVADTPENRRQLAETLLARGDYAQAAEHYQGALRGLYRDDPHLMLGLAKAQFGLGQPQQTRQTLDALIAANPSFRSHDGHLLYARAVEGSGDTDAALHEYDTLAQGYPGEEARVRYAQLLQRIARNDQARAVYEQVLRHAAASPKHYQREQRAWVDLARKGLRELDTGA | failed
MRSLMATRAKPNKKQNASARGKKPAWLGGIGLRQVRMFCGLVLFTYLLSHFLNHALGNISPEALHAGVLWHLEIWQFLPVAILFYGSVTVHAGLGLWALYQRRQFRWKTLEPLQLVLGLSVPLMIYSHVIVMRLGNVLYDQDRLYPQVLYNYFVASPSYRAWLMVAVMLIAWTHGCIGLYVWLRIKPAFRRAMPWLLAAAVLIPTLALLGFYQGGRTVAREAASPQWQANNLAPANLGTPEQQQTLEAIGNGFLIFYLGLIALALIARAVRAIIERRGGMVRLTYDGERSIRVPKGLTVLEATQRHNIPHASACGGRARCSTCRIRVLGDPATLPPPSPREAFVLASIGTGDDPSIRLACQLKPTQDLTFLPVFPPRNVAAARKAARAARIGEERYLVSMFVDMRGSTKLAESRLPFDTVFIVNRFLGAVSRSVIACGGQPNQFVGDGMLALFGLAETPREACRNAVRAAAAIGAAIDELNNFLGHDLPEPIRFGIGIHSGEVVVGEIGYRDHMVFTALGDSVNVASRLQDMTKSLGCETLLSDELRATAGLSEQALPTLELEIRGRTEPMLVCVVERAGDLVAVLNEDLVLA | failed
MRSRGEPLPAGGRMKTLAFVALALAGISWGLGFPTGKLILRETDAAHMVLLRFLVAAVAAAPFALRRPEVRALFRSPIVLLAGALYGVAFLVQFEGLAHVSVTVAALLVGAMPALIAVSARVLGEKVSRLSWAGVAAATLGAALIAGKPDGASSPLGVALSIAALFLFLTWLLVLRRAPPAPNPMAIPAVSIIVAALVVLPIALIMHGPPKLALSAPAWTAIVAQGVLATLLATAAWQYGAAQVGAASAGVFINIEPLMGAACGVLLFGDHLTAALFAGGLLIIGGSFAVVMGERQAKPGEIQATVAPTP | failed
MRTAVAVPYHSGIRLPLLFEKNARMTETIDTNVFNLAPVAMWIEDFSEVKSQFDIWRAEGIEDIRAFLLEDLSRVAACSQKIRVIEVNAKTLELFEARDQAHLVDNLHRIFRDDMLESHVNELSELWAGRTEFTSNAVNYSIGGRRLDIQLRGTVIPGHEDTLGRLLLTTEDVTEREEARRKELLNRRYAEGMFKHSPVSLWVEDFSRVRRLIEEVRERGIVDFRVFMDVHPEFVRQCMSEIRVIDVNQATLDLFCAADRQVLLQRLGDIFRGEMEKPFREQLIELWNGNLTHHREVVNYALDGSERHVLLHFSVFPGHERDWSLVQVALTDITARKKAEAYLEYLGKHDVLTKLHNRAFYSDELNRLERSALRPVSAIVIDLNGLKEANDKLGHDAGDALLRRVGEVLNGVVTAPNHAARIGGDEFAILLPGADKQVAAAMVDTVYELLKINNQFYSSAPLSLSLGVATTEAGETMESLVRRADMNMYEQKNAYYAALRNRSADNNDTTKGGSQSETTSLKRLF | failed
MRTEPQPLHLPVFRAILASMGEGIIFADADDRIRYINAAAEDIRGIIAGNYLGRSIVSIHSPASEGRIRRLIAGLKGGDIPFSTRVIHVREKIFENSYYPIRNENGIYEGTLLISRDITEKELLKEENNSLREQVRADFACGGMIGKSHAMEPVFHMIRATAALDSTILISGESGTGKELVACAIHQMSPRHKNPFVKVNCAALPETLLESELFGHERGAFTGAVRERKGKFEQAHLGTIFLDEIGEMPLAAQAKLLRVIQGKTLERIGGNREIAVDVRIIAATNKDLRREVERGAFREDLFYRLNVIPIHLPPLRERREDILPLAEHFLSVYAERMRKPVHCIAPDARKALLDYDYPGNVRELENAIERGVALSMGETITLADLAPYFVTGASAAPAGAALPKEPPTATLSRAVSVAEQEAIREALQTTGNRKGVAAKLLGISRKTLWEKLKQMERT | failed
MRTIAFALALLATPVAAELEAARDLMDAGRFDEAYAALWPAARSGNAEAEELIGVIYAMGLGRPRDDQRAFEWYLRAAMKGHPGAQSGVGWYYEVGRGLPAPDLMRAYMWYTLSAIGGDPDAAISLEEVAKKMTAEEINKAHVLVADYKVWMYPFR | failed
